Laboratory results: IntAct's records for PubMed 18723617

B1: Motility protein B (Salmonella typhimurium), P55892 (parent)
chain: MKNQAHPIVVVKRRRHKPHGGGAHGSWKIAYADFMTAMMAFFLVMWLISISSPKELIQIAEYFRTPLATAVTGGNRIANSESPIPGGGDDYTQQQGEVEKQPNIDELKKRMEQSRLNKLRGDLDQLIESDPKLRALRPHLKIDLVQEGLRIQIIDSQNRPMFKTGSAEVEPYMRDILRAIAPVLNGIPNRISLAGHTDDFPYANGEKGYSNWELSADRANASRRELVAGGLDNGKVLRVVGMAATMRLSDRGPDDAINRRISLLVLNKQAEQAILHENAESQNEPVSVLQQPAAAPPASVPTSPKAEPR
partner: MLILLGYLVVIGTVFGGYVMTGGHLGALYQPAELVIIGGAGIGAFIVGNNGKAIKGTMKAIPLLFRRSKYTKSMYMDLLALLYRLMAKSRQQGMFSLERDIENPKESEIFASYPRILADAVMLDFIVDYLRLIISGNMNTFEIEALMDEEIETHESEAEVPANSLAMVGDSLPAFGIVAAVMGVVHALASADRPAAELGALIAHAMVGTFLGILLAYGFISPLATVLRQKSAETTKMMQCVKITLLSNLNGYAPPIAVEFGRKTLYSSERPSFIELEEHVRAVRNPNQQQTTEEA

Variants of: B1
Conditions: with mota_salty motA

Variant	effect of a mutation on the interaction
MKNQAHPIVVVKRRRHKPHGGGAHGSWKIAYAEFMTAMMAFFLVMWLISISSPKELIQIAEYFRTPLATAVTGGNRIANSESPIPGGGDDYTQQQGEVEKQPNIDELKKRMEQSRLNKLRGDLDQLIESDPKLRALRPHLKIDLVQEGLRIQIIDSQNRPMFKTGSAEVEPYMRDILRAIAPVLNGIPNRISLAGHTDDFPYANGEKGYSNWELSADRANASRRELVAGGLDNGKVLRVVGMAATMRLSDRGPDDAINRRISLLVLNKQAEQAILHENAESQNEPVSVLQQPAAAPPASVPTSPKAEPR [D33E]	decreasing interaction strength
